Results from patent US12697350B2, “Methods and compositions for treating a premature termination codon-mediated disorder” (Tevard Biosciences, Inc., priority 2019, dated 2026).
Changes are numbered by the printed parent chain.

B1: tRNA-Gln-TTG-3-1-TTA-SUP (nucleic acid)
chain: GGCCCCATGGTGTAATGGTTAGCACTCTGGACTTTAAATCCAGCGATCCGAGTTCAAATCTCGGTGGGACCT
modifications: expressed or natural sequence
B2: tRNA-Gln-TTG-1-1-TTA-SUP (nucleic acid)
chain: B1 chain with C3T
modifications: chemistry not fully specified
B3: tRNA-Gln-CTG-1-1-CTA-SUP (nucleic acid)
chain: B1 chain with C3T, T34C
modifications: chemistry not fully specified

Assays:
[1] = system: EGFP-Q69X-TAA reporter; assay: 100 nt 5′ leader sequence library with GlnTTA suppressor tRNA #163, EGFP-Q69X-TAA reporter, Flp-In-293 cells (FIGS. 30, 31, 32); format: cell-based, human
Text: FIG. 27 is a schematic representation of the constructs used to test the impact of a 5′ leader sequence on the read-through of a premature termination codon (PTC) by a suppressor tRNA. Constructs contain (i) a 100 bp 5′ leader sequence derived from genomic DNA located upstream of tRNA genes that are highly expressed in HEK293 cells, (ii) a single copy of either the ArgTCA suppressor tRNA #115 (SEQ ID NO: 18) or the GlnTTA suppressor tRNA #163 (SEQ ID NO: 45), and (iii) an RNA polymerase III termination signal (“Term”).
FIG. 30 is a graph depicting the readthrough activity of the indicated GlnTTA suppressor tRNA expression constructs as measured by flow cytometry in Flp-In-293 cells at ~24 hours post transfection. […]
FIG. 31 is a graph depicting the readthrough activity of the indicated GlnTTA suppressor tRNA expression constructs as measured by flow cytometry in Flp-In-293 cells at ~24 hours post transfection. […]
The leader sequences in combination with the ArgTCA suppressor tRNA #115 (SEQ ID NO: 18) or the GlnTTA suppressor tRNA #163 (SEQ ID NO: 45) were tested for PTC readthrough activity by flow cytometry in cell lines co-transfected with an EGFP-R96X-TGA reporter (SEQ ID NO: 31) for ArgTCA constructs or an EGFP-Q69X-TAA reporter (SEQ ID NO: 175) for GlnTTA constructs.

[2] = system: EGFP-Q69X-TAA reporter; assay: PTC readthrough of GlnTTA suppressor tRNA #002 versus nonsense suppression drugs, EGFP-Q69X-TAA reporter, Neuro-2a cells (FIG. 33); format: cell-based, mouse; conditions: versus ataluren, gentamicin, G418 (FIG. 33)
Protocol: FIG. 33 is a graph depicting the percentage of EGFP positive cells as measured by flow cytometry in three independent experiments at ~48 hours post transfection. Neuro-2a cells were transfected with an expression construct containing the EGFP-Q69X-TAA reporter (“EGFP-PTC”) (SEQ ID NO: 175) and either (i) including the GlnTTA suppressor tRNA #002 (SEQ ID NO: 36) at the indicated copy number on the same construct, or (ii) treated with ataluren at the indicated concentration, (iii) treated with gentamicin at the indication concentration, or (iv) treated with G418 at the indicated concentration. […]
(§1) The suppressor tRNAs were tested alongside nonsense suppression drugs translarna (ataluren), gentamicin, and G418 (geneticin). PTC readthrough activity was measured in Neuro-2a cells ~48 hours after transfection with an expression construct containing a CAG:NLS-EGFP (Q69X-TAA) reporter (as described in Example 4, SEQ ID NO: 175) and either (i) including a Gln suppressor tRNA (either #002, tRNA-Gln-TTG-1-1-TTA-SUP, SEQ ID NO: 36, or #196, tRNA-Gln-TTG-1-1-CTA-SUP, SEQ ID NO: 178, both as described in Example 4) at the indicated copy number on the same construct, or (ii) treated with ataluren, (iii) treated with gentamicin, or (iv) treated with G418. […] PTC readthrough activity was measured as the percentage of EGFP positive cells as measured by flow cytometry. […]

[3] = system: Neuro-2a cells; format: cell-based, mouse
Protocol: FIG. 23 is a graph depicting cell viability from FIG. 22 as measured by flow cytometry at ~48 hours post transfection. Neuro-2a cells were transfected with an expression construct containing the EGFP-R96X-TGA reporter (“GFP-PTC”) and either (i) transfected with an expression construct including the ArgTCA suppressor tRNA #115 (SEQ ID NO: 18) at the indicated copy number on the same construct, or (ii) treated with ataluren at the indicated concentration, (iii) treated with gentamicin at the indication concentration, or (iv) treated with G418 at the indicated concentration. For all experimental conditions, cell culture medium was replaced with fresh medium ~6 hour after transfection and the indicated drugs at the indicated concentrations were added at this point. A reporter containing wildtype GFP without a PTC (“WT-GFP”) was used as a control. “Mock” indicates mock transfected cells. “4×TCG” indicates cells transfected with an expression construct that contains four copies of a wild-type Arg-tRNA with a TCG anticodon and the EGFP-R96X-TGA reporter. Cell viability was assessed by flow cytometry using 7-Amino Actinomycin D (7-AAD), a membrane impermeant dye that is generally excluded from viable cells.
FIG. 34 is a graph depicting cell viability from FIG. 33 as measured by flow cytometry at ~48 hours post transfection. […] Cell viability was assessed by flow cytometry using 7-Amino Actinomycin D (7-AAD), a membrane impermeant dye that is generally excluded from viable cells.
FIG. 36 is a graph depicting cell viability from FIG. 35 as measured by flow cytometry at ~48 hours post transfection. […] Cell viability was assessed by flow cytometry using 7-Amino Actinomycin D (7-AAD), a membrane impermeant dye that is generally excluded from viable cells. […]

[4] = system: EGFP-Q69X-TAG reporter; assay: PTC readthrough of GlnCTA suppressor tRNA #196 versus nonsense suppression drugs, EGFP-Q69X-TAG reporter, Neuro-2a cells (FIG. 35); format: cell-based, mouse; conditions: versus ataluren, gentamicin, G418 (FIG. 35)
Protocol: FIG. 35 is a graph depicting the percentage of EGFP positive cells as measured by flow cytometry in three independent experiments at ~48 hours post transfection. Neuro-2a cells were transfected with an expression construct containing the EGFP-Q69X-TAG reporter (“EGFP-PTC”) (SEQ ID NO: 176) and either (i) including the GlncTA suppressor tRNA #196 (SEQ ID NO: 178) at the indicated copy number on the same construct, or (ii) treated with ataluren at the indicated concentration, (iii) treated with gentamicin at the indication concentration, or (iv) treated with G418 at the indicated concentration. […]
as §1

Molecule	readthrough activity when combined with the identified leader sequences [1]	PTC readthrough compared with nonsense suppression drugs [2]	cell viability [3]	PTC readthrough compared with nonsense suppression drugs [4]
B1	showed high readthrough activity	–	–	–
B2	–	greater readthrough than any of the nonsense suppression drugs	not accompanied by a decrease in cell viability	–
B3	–	–	not accompanied by a decrease in cell viability	greater readthrough than any of the nonsense suppression drugs
